The values below come from patent US9994628B2, “Peptides and combination of peptides for use in immunotherapy against various tumors” (IMMATICS BIOTECHNOLOGIES GMBH, priority 2015, dated 2018).

The test system of one test is CD8+ T cells. The test is described as follows: In vitro T-cell priming assay with aAPCs loaded with peptide/MHC complexes and anti-CD28 antibody, pMHC multimer readout. The test is classed as cell-based, human. The following applies: for donors (in vitro immunogenicity): positive donors; for donors (in vitro immunogenicity) / wells (in vitro immunogenicity): healthy HLA-A*02 donors, three stimulation cycles; for wells (in vitro immunogenicity): positive wells; for Wells positive [%]: percentage of positive wells among evaluable, HLA-A*02 restricted peptides. An excerpt: In order to obtain information regarding the immunogenicity of the TUMAPs of the present invention, the inventors performed investigations using an in vitro T-cell priming assay based on repeated stimulations of CD8+ T cells with artificial antigen presenting cells (aAPCs) loaded with peptide/MHC complexes and anti-CD28 antibody.
In order to perform in vitro stimulations by artificial antigen presenting cells loaded with peptide-MHC complex (pMHC) and anti-CD28 antibody, the inventors first isolated CD8+ T cells from fresh HLA-A*02 leukapheresis products via positive selection using CD8 microbeads (Miltenyi Biotec, Bergisch-Gladbach, Germany) of healthy donors obtained from the University clinics Mannheim, Germany, after informed consent. PBMCs and isolated CD8+ lymphocytes were incubated in T-cell medium (TCM) until use consisting of RPMI-Glutamax (Invitrogen, Karlsruhe, Germany) supplemented with 10% heat inactivated human AB serum (PAN-Biotech, Aidenbach, Germany), 100 U/ml Penicillin/100 μg/ml Streptomycin (Cambrex, Cologne, Germany), 1 mM sodium pyruvate (CC Pro, Oberdorla, Germany), 20 μg/ml Gentamycin (Cambrex). 2.5 ng/ml IL-7 (PromoCell, Heidelberg, Germany) and 10 U/ml IL-2 (Novartis Pharma, Nümberg, Germany) were also added to the TCM at this step. Generation of pMHC/anti-CD28 coated beads, T-cell stimulations and readout was performed in a highly defined in vitro system using four different pMHC molecules per stimulation condition and 8 different pMHC molecules per readout condition.
The purified co-stimulatory mouse IgG2a anti human CD28 Ab 9.3 (Jung et al., 1987) was chemically biotinylated using Sulfo-N-hydroxysuccinimidobiotin as recommended by the manufacturer (Perbio, Bonn, Germany). Beads used were 5.6 μm diameter streptavidin coated polystyrene particles (Bangs Laboratories, Illinois, USA).
pMHC used for positive and negative control stimulations were A*0201/MLA-001 (peptide […] (SEQ ID NO. 289) from modified Melan-A/MART-1) and A*0201/DDX5-001 ([…] from DDX5, SEQ ID NO. 290), respectively.
800.000 beads/200 μl were coated in 96-well plates in the presence of 4×12.5 ng different biotin-pMHC, washed and 600 ng biotin anti-CD28 were added subsequently in a volume of 200 μl. Stimulations were initiated in 96-well plates by co-incubating […] CD8+ T cells with 2×10^5 washed coated beads in 200 μl TCM supplemented with 5 ng/ml IL-12 (PromoCell) for 3 days at 37° C. Half of the medium was then exchanged by fresh TCM supplemented with 80 U/ml IL-2 and incubating was continued for 4 days at 37° C. This stimulation cycle was performed for a total of three times. For the pMHC multimer readout using 8 different pMHC molecules per condition, a two-dimensional combinatorial coding approach was used as previously described (Andersen et al., 2012) with minor modifications encompassing coupling to 5 different fluorochromes. Finally, multimeric analyses were performed by staining the cells with Live/dead near IR dye (Invitrogen, Karlsruhe, Germany), CD8-FITC antibody clone SK1 (BD, Heidelberg, Germany) and fluorescent pMHC multimers. For analysis, a BD LSRII SORP cytometer equipped with appropriate lasers and filters was used. Peptide specific cells were calculated as percentage of total CD8+ cells. Evaluation of multimeric analysis was done using the FlowJo software (Tree Star, Oregon, USA). In vitro priming of specific multimer+ CD8+ lymphocytes was detected by comparing to negative control stimulations.

For another test, the target named is HLA-A*02:01 (Homo sapiens, UniProt P04439, D140Y/D185E/D98H/E176V/E277Q/G131W/G231S/I119V/I121R/I166T/I218V/L300P/L318F/N151K/N90K/P208A/P217A/Q86G/Q94H/R138H/R169H/T345S). The test is described as follows: MHC binding assay: UV-ligand exchange and β2m ELISA (peptide exchange yield, Table 7). The settings on record: binding of HLA-class I restricted peptides to HLA-A*02:01, UV-ligand exchange. In a few lines:
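Peptide-MHC complexes made by UV-mediated exchange of a cleavable ligand for test peptide; exchange yield measured by ELISA detecting β2m of stabilized complexes captured on streptavidin, using refolded HLA-A*02:01/MLA-001 monomer standards (15-500 ng/ml). Samples diluted 100-fold; HRP anti-β2m, TMB, absorbance 450 nm.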

Take “287 (KIQEILTQV; listed as Homo sapiens) [compound 287]”: in the test with CD8+ T cells, the “donors (in vitro immunogenicity)” value is given as “+++ (50%-69% = +++)” and the “wells (in vitro immunogenicity)” value was “+ (<20% = +)”.

As for “288 (SLYKGLLSV; listed as Homo sapiens) [compound 288]”, in the test with CD8+ T cells, the “donors (in vitro immunogenicity)” value is “++++ (>=70% = ++++)” and the “wells (in vitro immunogenicity)” value is reported as “++ (21%-49% = ++)”.

Regarding “39 (YLEDGFAYV; listed as Homo sapiens) [compound 39]”, the “Wells positive [%]” value with CD8+ T cells is recorded as “++++ (>=70% = ++++)”. Besides, the “Peptide exchange (MHC class I binding score, peptide exchange yield)” value (“Peptide exchange” below) with HLA-A*02:01 is listed as “+++ (≥50% = +++)”.

“34 (TLNTLDINL; listed as Homo sapiens) [compound 34]”: the “Wells positive [%]” value in the test with CD8+ T cells is “++++ (>=70% = ++++)”. The “Peptide exchange” value in the test with HLA-A*02:01 is listed as “+++ (≥50% = +++)”.

For the substance “188 (VLGEEQEGV; listed as Homo sapiens) [compound 188]”, the “Peptide exchange” value with HLA-A*02:01 is listed as “++ (≥20% = ++)”.

For “170 (FIAAVVEKV; listed as Homo sapiens) [compound 170]”, the “Peptide exchange” value with HLA-A*02:01 was “++ (≥20% = ++)”.

Turning to “149 (NMADGQLHQV; listed as Homo sapiens) [compound 149]”, the “Peptide exchange” value with HLA-A*02:01 is “++ (≥20% = ++)”.

In the case of “134 (SLYKSFLQL; listed as Homo sapiens) [compound 134]”, the “Peptide exchange” value in the test with HLA-A*02:01 is “++ (≥20% = ++)”.

Regarding “19 (KVFELDLVTL; listed as Homo sapiens) [compound 19]”, the “Peptide exchange” value in the test with HLA-A*02:01 was “++ (≥20% = ++)”.

Regarding “169 (ALADLSVAV; listed as Homo sapiens) [compound 169]”, the “Peptide exchange” value with HLA-A*02:01 was “+++ (≥50% = +++)”.

Turning to “187 (SILKEDPFL; listed as Homo sapiens) [compound 187]”, the “Peptide exchange” value with HLA-A*02:01 is reported as “++ (≥20% = ++)”.

Take “177 (ALINVLNAL; listed as Homo sapiens) [compound 177]”: in the test with HLA-A*02:01, the “Peptide exchange” value is on record as “+++ (≥50% = +++)”.

Consider “246 (ALAGIVTNV; listed as Homo sapiens) [compound 246]”, for which the “Peptide exchange” value with HLA-A*02:01 is given as “+++ (≥50% = +++)”.

Take “139 (IILENIQSL; listed as Homo sapiens) [compound 139]”: the “Peptide exchange” value with HLA-A*02:01 was “+++ (≥50% = +++)”.

In the case of “129 (KMASKVTQV; listed as Homo sapiens) [compound 129]”, the “Peptide exchange” value with HLA-A*02:01 is “++ (≥20% = ++)”.

On to “223 (ALHPVQFYL; listed as Homo sapiens) [compound 223]”, for which the “Peptide exchange” value with HLA-A*02:01 is on record as “+++ (≥50% = +++)”.

Take “154 (AIIKEIQTV; listed as Homo sapiens) [compound 154]”: in the test with HLA-A*02:01, the “Peptide exchange” value is “++ (≥20% = ++)”.

Turning to “81 (ILAEEPIYI; listed as Homo sapiens) [compound 81]”, in the test with HLA-A*02:01, the “Peptide exchange” value is listed as “++ (≥20% = ++)”.

Turning to “251 (LLWGNLPEI; listed as Homo sapiens) [compound 251]”, in the test with HLA-A*02:01, the “Peptide exchange” value is reported as “+++ (≥50% = +++)”.

On to “217 (LLWPSSVPA; listed as Homo sapiens) [compound 217]”, for which the “Peptide exchange” value with HLA-A*02:01 is “+++ (≥50% = +++)”.

Consider “204 (SEWGSPHAAVP; listed as Homo sapiens) [compound 204]”, for which the “Peptide exchange” value in the test with HLA-A*02:01 is on record as “+++ (≥50% = +++)”.

Consider “211 (LLTTVLINA; listed as Homo sapiens) [compound 211]”, for which the “Peptide exchange” value in the test with HLA-A*02:01 is listed as “+++ (≥50% = +++)”.

In the case of “130 (QLYGSAITL; listed as Homo sapiens) [compound 130]”, in the test with HLA-A*02:01, the “Peptide exchange” value is “+++ (≥50% = +++)”.

Regarding “241 (KQFEGTVEI; listed as Homo sapiens) [compound 241]”, the “Peptide exchange” value in the test with HLA-A*02:01 is “+++ (≥50% = +++)”.

As for “18 (KTASINQNV; listed as Homo sapiens) [compound 18]”, the “Peptide exchange” value with HLA-A*02:01 is “++ (≥20% = ++)”.

With “239 (VIIKGLEEITV; listed as Homo sapiens) [compound 239]”, the “Peptide exchange” value in the test with HLA-A*02:01 is given as “+++ (≥50% = +++)”.

“23 (ALLSPLSLA; listed as Homo sapiens) [compound 23]”: in the test with HLA-A*02:01, the “Peptide exchange” value is listed as “+++ (≥50% = +++)”.

Consider “235 (SLLNQPKAV; listed as Homo sapiens) [compound 235]”, for which the “Peptide exchange” value with HLA-A*02:01 is listed as “++ (≥20% = ++)”.
